In patent US6034071:

Target: FLAG epitope tagged adenylyl cyclase 2 (rat)

Work on protein kinase C (enzyme) yielded a 32P incorporated into purified F-AC2 after PMA treatment of the cells of 3 fold.
